Measurements as given in US20240287172A1 (SCIRHOM, published 2024).

What was measured:
hiR2-FL-V434E-T7 = target: T1, hiR2-FL-V434E-T7 (human, UniProt Q6PJF5 1-856); test: FACS, MEF-DKO cells, 3 µg/ml
T1 sequence: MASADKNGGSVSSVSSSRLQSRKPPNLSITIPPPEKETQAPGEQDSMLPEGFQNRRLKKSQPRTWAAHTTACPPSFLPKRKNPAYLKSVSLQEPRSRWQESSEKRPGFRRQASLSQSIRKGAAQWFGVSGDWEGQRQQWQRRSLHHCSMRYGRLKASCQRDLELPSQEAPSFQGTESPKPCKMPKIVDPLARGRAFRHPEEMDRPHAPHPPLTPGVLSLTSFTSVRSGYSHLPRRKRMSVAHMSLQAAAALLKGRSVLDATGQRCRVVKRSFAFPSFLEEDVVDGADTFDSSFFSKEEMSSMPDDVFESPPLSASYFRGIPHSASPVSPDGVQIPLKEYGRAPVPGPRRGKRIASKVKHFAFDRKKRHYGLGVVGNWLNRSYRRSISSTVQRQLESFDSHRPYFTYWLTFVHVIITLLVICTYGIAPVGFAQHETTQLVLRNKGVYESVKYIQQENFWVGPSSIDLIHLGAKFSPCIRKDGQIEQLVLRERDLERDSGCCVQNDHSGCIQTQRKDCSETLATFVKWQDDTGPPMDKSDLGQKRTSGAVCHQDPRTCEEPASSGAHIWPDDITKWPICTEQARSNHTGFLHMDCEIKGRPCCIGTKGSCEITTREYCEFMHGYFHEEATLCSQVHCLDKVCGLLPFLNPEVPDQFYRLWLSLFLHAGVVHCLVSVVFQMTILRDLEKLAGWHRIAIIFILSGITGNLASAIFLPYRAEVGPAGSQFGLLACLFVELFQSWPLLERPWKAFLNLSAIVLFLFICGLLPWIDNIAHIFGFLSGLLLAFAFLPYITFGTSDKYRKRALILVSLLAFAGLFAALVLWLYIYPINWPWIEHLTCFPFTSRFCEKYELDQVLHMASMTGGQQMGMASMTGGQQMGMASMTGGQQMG
From the text: (§1) In brief, immortalized MEF-DKO-hiR2-FL-A431S-T7, MEF-DKO-hiR2-FL-V434E-T7, MEF-DKO-hiR2-FL-T436V-T7, MEF-DKO-hiR2-FL-Q437D-T7, MEF-DKO-hiR2-FL-L438S-T7, MEF-DKO-hiR2-FL-S448N-T7, MEF-DKO-hiR2-FL-I452V-T7, MEF-DKO-hiR2-FL-I464E-T7, MEF-DKO-hiR2-FL-D465A-T7, MEF-DKO-hiR2-FL-I477M-T7, MEF-DKO-hiR2-FL-K479Q-T7, MEF-DKO-hiR2-FL-G481P-T7, MEF-DKO-hiR2-FL-I483V-T7, MEF-DKO-hiR2-FL-E484H-T7, MEF-DKO-hiR2-FL-Q485S-T7, MEF-DKO-hiR2-FL-L486F-T7, MEF-DKO-hiR2-FL-V487I-T7, MEF-DKO-hiR2-FL-R489S-T7, MEF-DKO-hiR2-FL-E490A-T7, MEF-DKO-hiR2-FL-D492E-T7, MEF-DKO-hiR2-FL-L493R-T7, MEF-DKO-hiR2-FL-R495K-T7 and MEF-DKO-hiR2-FL-D496H-T7 cells were harvested with 10 mM EDTA in PBS, washed and resuspended in FACS buffer (PBS, 3% FBS, 0.05% sodium azide), and seeded in Nunc U-bottom 96-well plates (Thermo Fisher Scientific, USA) at approximately 1×10⁵ cells per well. To pellet cells and remove supernatants, the plates were centrifuged at 1,500 rpm and 4° C. for 3 minutes. For primary staining, cells were resuspended in 100 μl per well of either FACS buffer alone (controls) or the purified antibodies 3, 5, 16, 22, 34, 42, 43, 44, 48, and 50 of the invention at 3 μg/ml in FACS buffer and incubated on ice for 1 hour. Afterwards, plates were centrifuged at 1,500 rpm and 4° C. for 3 minutes and washed twice with 200 μl per well of FACS buffer. For secondary staining, cells were spun down and resuspended in 100 μl per well of PE-conjugated goat anti-mouse IgG F(ab′)2 detection fragment (Dianova, Germany) diluted 1:100 in FACS buffer. Protected from light, the cell suspensions were incubated on ice for 1 hour. Plates were then centrifuged at 1,500 rpm and 4° C. for 3 minutes and washed three times with 200 μl per well of FACS buffer. Finally, cells were resuspended in 150 μl per well of FACS buffer and analyzed using a BD Accuri™ C6 Plus flow cytometer (Becton Dickinson, Germany).

hiR2-FL-I477M-T7 = target: T2, hiR2-FL-I477M-T7 (human, UniProt Q6PJF5 1-856); test: FACS, MEF-DKO cells, 3 µg/ml
T2 sequence: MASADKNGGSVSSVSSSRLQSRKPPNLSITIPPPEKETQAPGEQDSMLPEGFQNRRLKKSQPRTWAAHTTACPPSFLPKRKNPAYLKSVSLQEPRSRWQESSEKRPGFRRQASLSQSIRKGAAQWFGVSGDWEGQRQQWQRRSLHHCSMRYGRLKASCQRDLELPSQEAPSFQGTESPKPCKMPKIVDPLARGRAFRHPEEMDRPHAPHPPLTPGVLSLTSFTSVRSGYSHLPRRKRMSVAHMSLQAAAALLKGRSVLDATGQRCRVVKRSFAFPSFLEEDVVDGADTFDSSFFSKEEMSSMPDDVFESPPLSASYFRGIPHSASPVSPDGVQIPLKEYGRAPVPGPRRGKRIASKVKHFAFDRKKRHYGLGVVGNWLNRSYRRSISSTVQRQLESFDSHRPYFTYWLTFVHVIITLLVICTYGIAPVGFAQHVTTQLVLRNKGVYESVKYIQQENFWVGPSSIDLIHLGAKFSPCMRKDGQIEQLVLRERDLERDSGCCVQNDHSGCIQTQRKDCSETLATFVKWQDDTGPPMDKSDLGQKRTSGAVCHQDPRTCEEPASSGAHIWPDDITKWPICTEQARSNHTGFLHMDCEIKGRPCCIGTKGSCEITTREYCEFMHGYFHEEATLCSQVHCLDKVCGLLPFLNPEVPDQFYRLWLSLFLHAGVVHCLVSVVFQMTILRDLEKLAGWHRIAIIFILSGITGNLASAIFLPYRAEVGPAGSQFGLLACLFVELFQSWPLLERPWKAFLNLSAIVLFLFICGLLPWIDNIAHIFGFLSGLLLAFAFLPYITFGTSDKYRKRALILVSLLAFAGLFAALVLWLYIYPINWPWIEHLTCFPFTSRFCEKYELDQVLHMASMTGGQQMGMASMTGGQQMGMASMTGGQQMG
From the text: as §1

B1: antibody 48 (antibody, V domains shown)
VH: QVQLQQSGTELVRPGTSVKVSCKASGYAFTNYLIEWVKQRPGQGLEWIGVINPGSGFTKYNEKFKGKATLTADKSSSTVYMHLSSLTSEDSAVYFCARGLYRAMDYWGQGTSVTVSS
VL: DIQMTQSPASQSASLGESVTITCLASQTIATWLAWYQQKPGKSPQLLIYGATTLADGVPSRFSGGGSGTKFSFKISSLQAEDFVSYYCQQLYSTPYTFGGGTKLEIK
notes: mouse IgG, kappa light chain; also called clone #48; purified antibody 48
loss of binding vs wild type (hiR2-FL-V434E-T7): ≥ 30%
loss of binding vs wild type (hiR2-FL-I477M-T7): ≥ 30%

B2: antibody 50 (antibody, V domains shown)
VH: QVQLQQSGAELVRPGASVKVSCKASGYAFSNYLIEWVKQRPGQGLEWIGVINPGSGFTKYNEKFKGKATLTADKSSSTAYMQLSSLTSEDSAVYFCARGLYRAMDYWGQGTSVTVSS
VL: DIQMTQSPASQSASLGESVTITCLASQTIGTWLAWYQQKPGKSPQLLIYAAASLADGVPSRFSGGGSGTKFSFKISSLQAEDFVNYYCQQIYSTPYTFGGGTKLEIK
notes: mouse IgG, kappa light chain; also called clone #50; purified antibody 50
loss of binding vs wild type (hiR2-FL-V434E-T7): ≥ 30%
loss of binding vs wild type (hiR2-FL-I477M-T7): ≥ 30%
